According to article PMC10397247:

Columns and labels:
4H850-bH = biological target: T1, 4H850-bH; test: two-hybrid library CCNG1;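 note: natural log of median RNA to DNA barcode read ratio; higher means stronger binding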
T1 chain: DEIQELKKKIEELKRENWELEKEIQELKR

4H3129-bH = biological target: T2, 4H3129-bH; test: two-hybrid library CCNG1;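 note: natural log of median RNA to DNA barcode read ratio; higher means stronger binding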
T2 chain: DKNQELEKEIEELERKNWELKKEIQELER

O6-bP = biological target: T3, O6-bP; test: two-hybrid library CCNG1;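 note: natural log of median RNA to DNA barcode read ratio; higher means stronger binding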
T3 chain: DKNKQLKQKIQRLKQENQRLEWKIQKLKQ

4H3974-bH = biological target: T4, 4H3974-bH; test: two-hybrid library CCNG1;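 note: natural log of median RNA to DNA barcode read ratio; higher means stronger binding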
T4 chain: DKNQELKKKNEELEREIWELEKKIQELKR

4H570-bH = biological target: T5, 4H570-bH; test: two-hybrid library CCNG1;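 note: natural log of median RNA to DNA barcode read ratio; higher means stronger binding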
T5 chain: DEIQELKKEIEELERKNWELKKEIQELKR

4H1804-bH = biological target: T6, 4H1804-bH; test: two-hybrid library CCNG1;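 note: natural log of median RNA to DNA barcode read ratio; higher means stronger binding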
T6 chain: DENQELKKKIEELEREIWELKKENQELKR

4H3631-bH = biological target: T7, 4H3631-bH; test: two-hybrid library CCNG1
T7 chain: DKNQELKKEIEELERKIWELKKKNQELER

4H619-bH = biological target: T8, 4H619-bH; test: two-hybrid library CCNG1
T8 chain: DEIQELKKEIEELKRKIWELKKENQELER

4H3172-bH = biological target: T9, 4H3172-bH; test: two-hybrid library CCNG1
T9 chain: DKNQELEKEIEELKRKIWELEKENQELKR

4H1710-bH = biological target: T10, 4H1710-bH; test: two-hybrid library CCNG1
T10 chain: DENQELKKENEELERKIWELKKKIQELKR

4H584-bH = biological target: T11, 4H584-bH; test: two-hybrid library CCNG1
T11 chain: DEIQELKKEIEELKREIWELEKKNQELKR

4H496-bA = biological target: T12, 4H496-bA; test: two-hybrid library CCNG1
T12 chain: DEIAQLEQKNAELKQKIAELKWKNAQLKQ

4H3817-bH = biological target: T13, 4H3817-bH; test: two-hybrid library CCNG1
T13 chain: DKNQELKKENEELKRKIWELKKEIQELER

4H906-bH = biological target: T14, 4H906-bH; test: two-hybrid library CCNG1
T14 chain: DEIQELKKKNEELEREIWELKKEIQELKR

4H3414-bH = biological target: T15, 4H3414-bH; test: two-hybrid library CCNG1
T15 chain: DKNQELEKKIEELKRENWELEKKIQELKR

4H3638-bH = biological target: T16, 4H3638-bH; test: two-hybrid library CCNG1
T16 chain: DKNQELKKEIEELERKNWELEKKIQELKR

P8A-bH = biological target: T17, P8A-bH; test: two-hybrid library CCNG1
T17 chain: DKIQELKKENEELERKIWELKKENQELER

4H1629-bH = biological target: T18, 4H1629-bH; test: two-hybrid library CCNG1
T18 chain: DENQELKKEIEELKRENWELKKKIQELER

4H1985-bH = biological target: T19, 4H1985-bH; test: two-hybrid library CCNG1
T19 chain: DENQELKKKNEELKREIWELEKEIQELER

4H1899-bH = biological target: T20, 4H1899-bH; test: two-hybrid library CCNG1
T20 chain: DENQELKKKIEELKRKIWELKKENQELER

4H3858-bH = biological target: T21, 4H3858-bH; test: two-hybrid library CCNG1
T21 chain: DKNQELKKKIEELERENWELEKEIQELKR

4H1449-bH = biological target: T22, 4H1449-bH; test: two-hybrid library CCNG1
T22 chain: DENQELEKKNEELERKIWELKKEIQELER

4H3592-bA = biological target: T23, 4H3592-bA; test: two-hybrid library CCNG1
T23 chain: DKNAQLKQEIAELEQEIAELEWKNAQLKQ

4H3613-bH = biological target: T24, 4H3613-bH; test: two-hybrid library CCNG1
T24 chain: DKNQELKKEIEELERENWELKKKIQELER

4H1544-bH = biological target: T25, 4H1544-bH; test: two-hybrid library CCNG1
T25 chain: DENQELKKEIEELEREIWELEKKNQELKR

4H3628-bH = biological target: T26, 4H3628-bH; test: two-hybrid library CCNG1
T26 chain: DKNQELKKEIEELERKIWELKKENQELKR

4H3921-AA = biological target: T27, 4H3921-AA; test: two-hybrid library CCmax; conditions: mean of both orientations
T27 chain: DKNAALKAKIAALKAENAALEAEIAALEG

4H3343-AA = biological target: T28, 4H3343-AA; test: two-hybrid library CCmax; conditions: mean of both orientations
T28 chain: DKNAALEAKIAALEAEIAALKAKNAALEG

4H2883-AA = biological target: T29, 4H2883-AA; test: two-hybrid library CCmax; conditions: mean of both orientations
T29 chain: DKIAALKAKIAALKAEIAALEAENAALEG

4H678-AA = biological target: T30, 4H678-AA; test: two-hybrid library CCmax; conditions: mean of both orientations
T30 chain: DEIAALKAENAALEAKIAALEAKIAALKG

4H317-AA = biological target: T31, 4H317-AA; test: two-hybrid library CCmax; conditions: mean of both orientations
T31 chain: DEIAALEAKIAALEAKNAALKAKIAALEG

4H717-AA = biological target: T32, 4H717-AA; test: two-hybrid library CCmax; conditions: mean of both orientations
T32 chain: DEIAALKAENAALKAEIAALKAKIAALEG

4H429-AA = biological target: T33, 4H429-AA; test: two-hybrid library CCmax; conditions: mean of both orientations
T33 chain: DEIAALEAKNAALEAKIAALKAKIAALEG

4H2729-AA = biological target: T34, 4H2729-AA; test: two-hybrid library CCmax
T34 chain: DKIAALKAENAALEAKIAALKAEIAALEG

4H993-AA = biological target: T35, 4H993-AA; test: two-hybrid library CCmax; conditions: mean of both orientations
T35 chain: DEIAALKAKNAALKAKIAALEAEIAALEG

4H3844-AA = biological target: T36, 4H3844-AA; test: two-hybrid library CCmax; conditions: mean of both orientations
T36 chain: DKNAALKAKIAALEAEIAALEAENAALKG

4H335-AA = biological target: T37, 4H335-AA; test: two-hybrid library CCmax; conditions: mean of both orientations
T37 chain: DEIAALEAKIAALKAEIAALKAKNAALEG

4H881-AA = biological target: T38, 4H881-AA; test: two-hybrid library CCmax; conditions: mean of both orientations
T38 chain: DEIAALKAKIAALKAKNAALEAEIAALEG

4H2949-AA = biological target: T39, 4H2949-AA; test: two-hybrid library CCmax; conditions: mean of both orientations
T39 chain: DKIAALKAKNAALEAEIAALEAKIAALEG

4H2944-AA = biological target: T40, 4H2944-AA; test: two-hybrid library CCmax; conditions: mean of both orientations
T40 chain: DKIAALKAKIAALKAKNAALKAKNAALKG

4H3627-AA = biological target: T41, 4H3627-AA; test: two-hybrid library CCmax; conditions: mean of both orientations
T41 chain: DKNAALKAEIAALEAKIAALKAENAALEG

4H2837-AA = biological target: T42, 4H2837-AA; test: two-hybrid library CCmax; conditions: mean of both orientations
T42 chain: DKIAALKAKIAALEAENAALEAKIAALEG

4H605-AA = biological target: T43, 4H605-AA; test: two-hybrid library CCmax; conditions: mean of both orientations
T43 chain: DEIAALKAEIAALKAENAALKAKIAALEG

4H3655-AA = biological target: T44, 4H3655-AA; test: two-hybrid library CCmax; conditions: mean of both orientations
T44 chain: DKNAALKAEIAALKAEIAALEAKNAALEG

4H48-AA = biological target: T45, 4H48-AA; test: two-hybrid library CCmax; conditions: mean of both orientations
T45 chain: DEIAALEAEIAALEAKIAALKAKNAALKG

4H566-AA = biological target: T46, 4H566-AA; test: two-hybrid library CCmax; conditions: mean of both orientations
T46 chain: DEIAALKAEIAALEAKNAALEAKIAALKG

4H794-AA = biological target: T47, 4H794-AA; test: two-hybrid library CCmax; conditions: mean of both orientations
T47 chain: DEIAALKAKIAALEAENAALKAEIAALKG

4H454-AA = biological target: T48, 4H454-AA; test: two-hybrid library CCmax; conditions: mean of both orientations
T48 chain: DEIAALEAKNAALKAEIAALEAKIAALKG

N5-AA = biological target: T49, N5-AA; test: two-hybrid library CCmax; conditions: mean of both orientations
T49 chain: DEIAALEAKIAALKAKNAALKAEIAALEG

4H2754-AA = biological target: T50, 4H2754-AA; test: two-hybrid library CCmax; conditions: mean of both orientations
T50 chain: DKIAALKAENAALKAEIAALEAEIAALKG

4H906-AA = biological target: T51, 4H906-AA; test: two-hybrid library CCmax; conditions: mean of both orientations
T51 chain: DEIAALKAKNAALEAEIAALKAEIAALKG

4H780-AA = biological target: T52, 4H780-AA; test: two-hybrid library CCmax; conditions: mean of both orientations
T52 chain: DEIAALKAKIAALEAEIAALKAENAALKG

4H3427-AA = biological target: T53, 4H3427-AA; test: two-hybrid library CCmax; conditions: mean of both orientations
T53 chain: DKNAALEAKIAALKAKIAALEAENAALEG

N6-AA = biological target: T54, N6-AA; test: two-hybrid library CCmax; conditions: mean of both orientations
T54 chain: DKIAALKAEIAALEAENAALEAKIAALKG

4H3606-AA = biological target: T55, 4H3606-AA; test: two-hybrid library CCmax; conditions: mean of both orientations
T55 chain: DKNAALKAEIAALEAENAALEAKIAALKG

4H342-AA = biological target: T56, 4H342-AA; test: two-hybrid library CCmax; conditions: mean of both orientations
T56 chain: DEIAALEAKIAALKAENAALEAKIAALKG

4H3112-AA = biological target: T57, 4H3112-AA; test: two-hybrid library CCmax; conditions: mean of both orientations
T57 chain: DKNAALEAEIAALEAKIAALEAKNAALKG

## DENQELKKEIEELKRENWELKKKIQELER [4H1629-bH]
4H850-bH
  interaction score: 1.03
4H3129-bH
  interaction score: -0.581
O6-bP
  interaction score: 1.7
4H3974-bH
  interaction score: 0.236
4H570-bH
  interaction score: -1.69
4H1804-bH
  interaction score: -1.81
4H3631-bH
  interaction score: -0.299
4H619-bH
  interaction score: 0.577
4H3172-bH
  interaction score: -0.534
4H1710-bH
  interaction score: -2.67
4H584-bH
  interaction score: 0.366
4H496-bA
  interaction score: -2.88
4H3817-bH
  interaction score: -0.618
4H906-bH
  interaction score: -0.794
4H3414-bH
  interaction score: -1.1
4H3638-bH
  interaction score: -1.09
P8A-bH
  interaction score: 0.887
4H1629-bH
  interaction score: -0.954
4H1985-bH
  interaction score: -0.16

## DENQELEKKNEELERKIWELKKEIQELER [4H1449-bH]
4H1899-bH
  interaction score: -0.126
4H850-bH
  interaction score: -0.674
4H3858-bH
  interaction score: -0.658
4H3129-bH
  interaction score: -0.319
4H3974-bH
  interaction score: 1.15
4H570-bH
  interaction score: -0.108
4H1804-bH
  interaction score: -0.461
4H3631-bH
  interaction score: 0.733
4H619-bH
  interaction score: -2.2
4H3172-bH
  interaction score: -0.0351
4H1710-bH
  interaction score: -0.366
4H584-bH
  interaction score: -0.0853
4H1449-bH
  interaction score: -1.25
4H3592-bA
  interaction score: -0.126
4H3817-bH
  interaction score: -0.644
4H3613-bH
  interaction score: -0.131
4H1544-bH
  interaction score: -0.787
4H906-bH
  interaction score: -1.2
4H3628-bH
  interaction score: -0.479
4H3414-bH
  interaction score: -0.216
4H3638-bH
  interaction score: -0.0745
4H1629-bH
  interaction score: -0.891
4H1985-bH
  interaction score: -0.843

## DKIAALKAENAALEAKIAALKAEIAALEG [4H2729-AA]
4H3921-AA
  interaction score: -1.21
4H3343-AA
  interaction score: -1.17
4H2883-AA
  interaction score: -1.1
4H678-AA
  interaction score: 1.97
4H317-AA
  interaction score: 1.37
4H717-AA
  interaction score: 1.12
4H429-AA
  interaction score: 1.68
4H2729-AA
  interaction score: 1.46
4H993-AA
  interaction score: 1.96
4H3844-AA
  interaction score: -1.03
4H335-AA
  interaction score: -0.622
4H881-AA
  interaction score: -0.0189
4H2949-AA
  interaction score: 1.85
4H2944-AA
  interaction score: -1.66
4H3627-AA
  interaction score: 1.22
4H2837-AA
  interaction score: 0.924
4H605-AA
  interaction score: -1.37
4H3655-AA
  interaction score: -0.901
4H48-AA
  interaction score: -0.497
4H566-AA
  interaction score: 0.192
4H794-AA
  interaction score: -1.09
4H454-AA
  interaction score: 1.94
N5-AA
  interaction score: 0.643
4H2754-AA
  interaction score: 2.26
4H906-AA
  interaction score: 1.15
4H780-AA
  interaction score: -1.31
4H3427-AA
  interaction score: -1.33
N6-AA
  interaction score: 1.56
4H3606-AA
  interaction score: -0.747
4H342-AA
  interaction score: 2.18
4H3112-AA
  interaction score: -0.662
